Measured values published in PMC2943039.

Target: PCNA (Proliferating Cell Nuclear Antigen) (UniProt P12004)
Assay: PCNA-bead pull-down, anti-FEN1 blot
Details: reference: wild type, kinase-treated; sites S187

For “FEN1 (flap endonuclease 1) (from UniProt P39748) S187A, kinase-treated”, the “binding against the reference” value was “stronger”.
